# The Human Domainome abundance scans (Beltran et al. 2025)
# ± gives the uncertainty stated by the source.
# B1: Chromodomain-helicase-DNA-binding protein 4, residues 444 to 496; numbered along this chain, Q14839 (parent)
# chain: EDDHHMEFCRVCKDGGELLCCDTCPSSYHIHCLNPPLPEIPNGEWLCPRCTCP
# Variants of: B1
# Assay: abundance fitness (aPCA) (normalised: wild type 0, dead -1); higher = more abundant; growth selection in yeast, the domain comes from the species named
# Details: Homo sapiens
row,Variant,abundance fitness
1,L18G,-0.732 ± 0.093
2,L18V,-0.117 ± 0.052
3,L18K,-0.517 ± 0.1
4,L18I,-0.357 ± 0.068
5,L18P,-1.07 ± 0.072
6,L18E,-0.744 ± 0.1
7,L18S,-0.717 ± 0.061
8,L18M,0.037 ± 0.051
9,L18F,-0.581 ± 0.068
10,L18D,-1.3 ± 0.39
11,L18Q,-0.397 ± 0.071
12,L18C,-0.761 ± 0.15
13,L18W,-0.738 ± 0.054
14,L18Y,-0.751 ± 0.055
15,L18H,-0.66 ± 0.079
16,L18N,-0.489 ± 0.07
17,L18T,-0.373 ± 0.051
18,L18R,-0.394 ± 0.05
19,L18A,-0.682 ± 0.09
20,C21G,-0.722 ± 0.054
21,C21M,-0.955 ± 0.067
22,C21E,-0.239 ± 0.1
23,C21R,-0.762 ± 0.052
24,C21W,-1.12 ± 0.1

row,Variant,abundance fitness
1,C21N,-0.787 ± 0.07
2,C21Q,-0.76 ± 0.09
3,C21F,-1.02 ± 0.12
4,C21H,-0.745 ± 0.047
5,C21P,-0.829 ± 0.048
6,C21I,-0.853 ± 0.066
7,C21S,-0.994 ± 0.063
8,C21T,-0.902 ± 0.079
9,C21Y,-0.871 ± 0.066
10,C21A,-0.71 ± 0.086
11,C21K,-0.795 ± 0.059
12,C21L,-1.07 ± 0.05
13,C21D,-0.875 ± 0.086
14,C21V,-1.05 ± 0.088
15,H5I,0.165 ± 0.084
16,H5G,0.106 ± 0.044
17,H5K,0.199 ± 0.057
18,H5N,-0.006 ± 0.077
19,H5L,-0.305 ± 0.044
20,H5Y,0.097 ± 0.075
21,H5F,0.219 ± 0.098
22,H5S,-0.129 ± 0.048
23,H5R,0.096 ± 0.043
24,H5C,0.068 ± 0.085

row,Variant,abundance fitness
1,H5M,-0.12 ± 0.067
2,H5E,0.116 ± 0.055
3,H5Q,0.074 ± 0.067
4,H5V,-0.135 ± 0.053
5,H5P,-0.11 ± 0.051
6,H5A,0.092 ± 0.047
7,H5W,0.02 ± 0.054
8,H5T,0.019 ± 0.057
9,R10W,0.122 ± 0.088
10,R10G,-0.349 ± 0.062
11,R10L,-0.021 ± 0.043
12,R10Q,0.086 ± 0.066
13,R10H,-0.137 ± 0.051
14,R10F,0.059 ± 0.043
15,R10M,-0.301 ± 0.074
16,R10D,-0.142 ± 0.087
17,R10C,0.003 ± 0.077
18,R10K,0.124 ± 0.045
19,R10E,-0.07 ± 0.09
20,R10V,-0.056 ± 0.058
21,R10N,0.003 ± 0.044
22,R10P,-0.274 ± 0.049
23,R10Y,-0.009 ± 0.064
24,R10I,-0.014 ± 0.056

row,Variant,abundance fitness
1,R10T,0.028 ± 0.061
2,R10A,-0.17 ± 0.042
3,K13W,-0.139 ± 0.054
4,K13D,-0.243 ± 0.059
5,K13S,-0.101 ± 0.049
6,K13A,0.085 ± 0.046
7,K13Y,-0.375 ± 0.065
8,K13V,-0.303 ± 0.046
9,K13M,-0.2 ± 0.055
10,K13P,-1.08 ± 0.068
11,K13R,-0.087 ± 0.041
12,K13E,0.214 ± 0.061
13,K13T,-0.134 ± 0.041
14,K13G,-0.01 ± 0.057
15,K13L,-0.129 ± 0.042
16,K13F,-0.267 ± 0.054
17,K13Q,-0.024 ± 0.043
18,K13C,-0.126 ± 0.054
19,K13H,-0.286 ± 0.046
20,K13N,-0.199 ± 0.045
21,C12V,-0.7 ± 0.063
22,C12T,-0.769 ± 0.045
23,C12N,-0.663 ± 0.051
24,C12A,-0.74 ± 0.06

row,Variant,abundance fitness
1,C12P,-1.12 ± 0.052
2,C12M,-1.19 ± 0.074
3,C12G,-0.53 ± 0.046
4,C12L,-1.11 ± 0.06
5,C12H,-0.83 ± 0.074
6,C12R,-0.931 ± 0.045
7,C12Q,-0.928 ± 0.092
8,C12S,-0.971 ± 0.058
9,C12E,-0.124 ± 0.1
10,C12K,-0.607 ± 0.07
11,C12F,-0.896 ± 0.084
12,C12W,-0.822 ± 0.051
13,C12Y,-0.557 ± 0.089
14,C12I,-0.73 ± 0.048
15,C12D,-0.749 ± 0.1
16,T23R,0.038 ± 0.063
17,T23Q,-0.07 ± 0.066
18,T23E,0.047 ± 0.083
19,T23H,-0.107 ± 0.076
20,T23D,-0.305 ± 0.11
21,T23L,-0.195 ± 0.053
22,T23A,-0.119 ± 0.074
23,T23F,-0.221 ± 0.077
24,T23I,-0.042 ± 0.042

row,Variant,abundance fitness
1,T23P,-0.738 ± 0.053
2,T23C,-0.074 ± 0.088
3,T23K,-0.031 ± 0.065
4,T23M,-0.077 ± 0.067
5,T23N,0.093 ± 0.067
6,G15W,-0.317 ± 0.095
7,G15V,-0.115 ± 0.059
8,G15T,0.012 ± 0.057
9,G15F,-0.263 ± 0.049
10,G15Q,-0.126 ± 0.06
11,G15C,-0.508 ± 0.082
12,G15D,-0.274 ± 0.089
13,G15P,-0.154 ± 0.05
14,G15E,0.057 ± 0.058
15,G15K,0.08 ± 0.053
16,G15N,-0.179 ± 0.055
17,G15I,-0.397 ± 0.081
18,G15M,-0.102 ± 0.055
19,G15S,-0.061 ± 0.044
20,G15L,-0.486 ± 0.064
21,G15Y,-0.251 ± 0.076
22,D14F,-0.34 ± 0.061
23,D14R,-0.057 ± 0.052
24,D14E,0.223 ± 0.076

row,Variant,abundance fitness
1,D14H,-0.18 ± 0.059
2,D14M,-0.139 ± 0.054
3,D14Q,0.209 ± 0.047
4,D14I,-0.196 ± 0.055
5,D14W,-0.418 ± 0.063
6,D14K,0.074 ± 0.063
7,D14P,-1.02 ± 0.094
8,D14G,0.152 ± 0.073
9,D14L,0.023 ± 0.04
10,D14Y,-0.412 ± 0.07
11,D14T,-0.1 ± 0.047
12,D14S,0.018 ± 0.047
13,D14V,-0.089 ± 0.053
14,D14N,-0.205 ± 0.062
15,D14A,-0.068 ± 0.075
16,V11Q,-0.037 ± 0.043
17,V11T,-0.019 ± 0.05
18,V11P,-0.877 ± 0.07
19,V11I,-0.074 ± 0.083
20,V11L,-0.214 ± 0.048
21,V11D,-0.103 ± 0.069
22,V11W,-0.209 ± 0.071
23,V11R,0.012 ± 0.044
